The supplement of paper PMC11780869

Tested on: Bacillus subtilis
Experiment: cleaved RNA product abundance (RNA/gDNA barcode ratio) relative to median wild-type variant (ratio to wild type); higher = more accumulation of the downstream cleavage product
Conditions: cleavage site: cggR-gapA (positions -7 to +36 mutated)
Procedure, shortened: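 Oligos with a 9% error rate were used to build barcoded, mutagenized RNase Y cleavage-site windows within truncated aprE or tetM reporter mRNAs, which were integrated into the B. subtilis chromosome. Cultures were grown in LB at 37°C between OD600 0.0003 and 0.3. Cleaved RNA was gel-selected, reverse transcribed and barcode-sequenced, as were genomic DNA barcodes, and UMIs were collapsed. Cleaved product abundance is the scaled RNA:gDNA barcode ratio, with the median construct carrying the unmutated site as reference.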

[1] = experiment (reporter, strain, medium): exp 2b: truncated aprE reporter, strain BJT200
[2] = experiment (reporter, strain, medium): exp 4a: truncated aprE reporter, strain BJT201 with 2% xylose (RNase J1 expressed)
[3] = experiment (reporter, strain, medium): exp 6: tetM reporter, strain 168

Sequence	cleaved RNA product abundance [1]	cleaved RNA product abundance [2]	cleaved RNA product abundance [3]
ACAGACGAAGGAGCCGCAAAGGAGTTATTAAAGGATGAATAATCCCTCAATATAAATATCTCTCACTTATTTAAA	0.161	0.108	–
ACAGACGAAGGAGCCGCAAAGGAGTTATTAAGAGATGAATAATCCCTCAATATAAATATCTCTCACTTATTTAAA	–	0.199	–
ACAGACGAAGGAGCCGCAAAGGAGTTATTAAGGAATGAATAATCCCTCAATATAAATATCTCTCACTTATTTAAA	–	0.144	–
ACAGACGAAGGAGCCGCAAAGGAGTTATTAAGGGAAGAATAATCCCTCAATATAAATATCTCTCACTTATTTAAA	0.495	–	–
ACAGACGAAGGAGCCGCAAAGGAGTTATTAAGGGATAAATAATCCCTCAATATAAATATCTCTCACTTATTTAAA	0.828	0.789	–
ACAGACGAAGGAGCCGCAAAGGAGTTATTAAGGGATGAAAAATCCCTCAATATAAATATCTCTCACTTATTTAAA	–	0.576	–
ACAGACGAAGGAGCCGCAAAGGAGTTATTAAGGGATGAAGAATCCCTCAATATAAATATCTCTCACTTATTTAAA	–	0.859	–
ACAGACGAAGGAGCCGCAAAGGAGTTATTAAGGGATGAATAATACCTCAATATAAATATCTCTCACTTATTTAAA	0.131	0.192	–
ACAGACGAAGGAGCCGCAAAGGAGTTATTAAGGGATGAATAATCCCCCAATATAAATATCTCTCACTTATTTAAA	–	0.247	–
ACAGACGAAGGAGCCGCAAAGGAGTTATTAAGGGATGAATAATCCCTCAATAAAAATATCTCTCACTTATTTAAA	0.165	–	–
ACAGACGAAGGAGCCGCAAAGGAGTTATTAAGGGATGAATAATCCCTCAATATAAATATCTCTCACTTATTTAAA	1.06	0.982	0.911
ACAGACGAAGGAGCCGCAAAGGAGTTATTAAGGGATGAATAATCCCTCAATATCAATATCTCTCACTTATTTAAA	–	0.134	–
ACAGACGAAGGAGCCGCAAAGGAGTTATTAAGGGATGAATAATCCCTCACTATAAATATCTCTCACTTATTTAAA	–	0.302	–
ACAGACGAAGGAGCCGCAAAGGAGTTATTAAGGGATGAATAATCCCTGAATATAAATATCTCTCACTTATTTAAA	–	0.361	–
ACAGACGAAGGAGCCGCAAAGGAGTTATTAAGGGATGAATAATTCCTCAATATAAATATCTCTCACTTATTTAAA	0.328	–	–
ACAGACGAAGGAGCCGCAAAGGAGTTATTAAGGGATGACTAATCCCTCAATATAAATATCTCTCACTTATTTAAA	0.423	0.596	–
ACAGACGAAGGAGCCGCAAAGGAGTTATTAAGTGATGAATAATCCCTCAATATAAATATCTCTCACTTATTTAAA	–	0.162	–
ACAGACGAAGGAGCCGCAAAGGAGTTATTAATGGATGAATAATCCCTCAATATAAATATCTCTCACTTATTTAAA	–	0.114	–
ACAGACGAAGGAGCCGCAAAGGAGTTTTTAAGGGATGAATAATCCCTCAATATAAATATCTCTCACTTATTTAAA	–	0.369	–
ACAGACGAAGGAGCCGCAAAGTAATTATTAAGGGATGAATAATCCCTCAATATAAATATCTCTCACTTATTTAAA	–	0.645	–

Sequence	cleaved RNA product abundance [1]	cleaved RNA product abundance [2]	cleaved RNA product abundance [3]
ACAGACGAAGGAGCCGCAAAGTACTTATTAAGGGATGAATAATCCCTCAATATAAATATCTCTCACTTATTTAAA	0.437	0.803	–
ACAGACGAAGGAGCCGCAAAGTAGTAATTAAGGGATGAATAATCCCTCAATATAAATATCTCTCACTTATTTAAA	–	0.191	–
ACAGACGAAGGAGCCGCAAAGTAGTTAATAAGGGATGAATAATCCCTCAATATAAATATCTCTCACTTATTTAAA	0.292	0.433	–
ACAGACGAAGGAGCCGCAAAGTAGTTAATAATGGATGAATAATCCCTCAATATAAATATCTCTCACTTATTTAAA	–	0.0855	–
ACAGACGAAGGAGCCGCAAAGTAGTTATAAAGGGATGAATAATCCCTCAATATAAATATCTCTCACTTATTTAAA	–	0.301	–
ACAGACGAAGGAGCCGCAAAGTAGTTATTAAAGGATGAATAATCCATCAATATAAATATCTCTCACTTATTTAAA	–	0.153	–
ACAGACGAAGGAGCCGCAAAGTAGTTATTAAAGGATGAATAATCCCTCAATATAAATATCTCTCACTTATTTAAA	–	0.208	–
ACAGACGAAGGAGCCGCAAAGTAGTTATTAACGGATGAATAATCCCTCAATATAAATATCTCTCACTTATTTAAA	–	0.164	–
ACAGACGAAGGAGCCGCAAAGTAGTTATTAAGAGATGAATAATCCCTCAATATAAATATCTCTCACTTATTTAAA	0.126	0.124	–
ACAGACGAAGGAGCCGCAAAGTAGTTATTAAGCGATGAATAATCCCTCAATATAAATATCTCTCACTTATTTAAA	0.0839	0.0692	–
ACAGACGAAGGAGCCGCAAAGTAGTTATTAAGGAATGAATAATCCCTCAATATAAATATCTCTCACTTATTTAAA	–	0.148	–
ACAGACGAAGGAGCCGCAAAGTAGTTATTAAGGCATGAATAATCCCTCAATATAAATATCTCTCACTTATTTAAA	0.101	0.124	–
ACAGACGAAGGAGCCGCAAAGTAGTTATTAAGGGAGGAATAATCCCTCAATATAAATATCTCTCACTTATTTAAA	–	0.557	–
ACAGACGAAGGAGCCGCAAAGTAGTTATTAAGGGATAAATAATCCCTCAATATAAATATCTCTCACTTATTTAAA	–	0.9	–
ACAGACGAAGGAGCCGCAAAGTAGTTATTAAGGGATCAATAATCCCTCAATATAAATATCTCTCACTTATTTAAA	–	1.25	–
ACAGACGAAGGAGCCGCAAAGTAGTTATTAAGGGATGAACAATCCCTCAATATAAATATCTCTCACTTATTTAAA	–	0.763	–
ACAGACGAAGGAGCCGCAAAGTAGTTATTAAGGGATGAATAACCCCTCAATATAAATATCTCTCACTTATTTAAA	–	0.762	–
ACAGACGAAGGAGCCGCAAAGTAGTTATTAAGGGATGAATAAGCCCTCAATATAAATATCTCTCACTTATTTAAA	–	0.448	–
ACAGACGAAGGAGCCGCAAAGTAGTTATTAAGGGATGAATAATACCTCAATATAAATATCTCTCACTTATTTAAA	0.155	0.176	–
ACAGACGAAGGAGCCGCAAAGTAGTTATTAAGGGATGAATAATCACTCAATATAAATATCTCTCACTTATTTAAA	0.11	0.183	–

Sequence	cleaved RNA product abundance [1]	cleaved RNA product abundance [2]	cleaved RNA product abundance [3]
ACAGACGAAGGAGCCGCAAAGTAGTTATTAAGGGATGAATAATCCATCAATATAAATATCTCTCACTTATTTAAA	0.187	0.161	–
ACAGACGAAGGAGCCGCAAAGTAGTTATTAAGGGATGAATAATCCCACAATATAAATATCTCTCACTTATTTAAA	0.199	0.223	–
ACAGACGAAGGAGCCGCAAAGTAGTTATTAAGGGATGAATAATCCCTAAATATAAATATCTCTCACTTATTTAAA	–	0.55	–
ACAGACGAAGGAGCCGCAAAGTAGTTATTAAGGGATGAATAATCCCTCAAAATAAATATCTCTCACTTATTTAAA	0.289	0.425	0.282
ACAGACGAAGGAGCCGCAAAGTAGTTATTAAGGGATGAATAATCCCTCAATACAAATATCTCTCACTTATTTAAA	–	0.0777	–
ACAGACGAAGGAGCCGCAAAGTAGTTATTAAGGGATGAATAATCCCTCAATATAAATATCTCTCACTTATTTAAA	0.953	0.98	1.09
ACAGACGAAGGAGCCGCAAAGTAGTTATTAAGGGATGAATAATCCCTCAATATAATTATCTCTCACTTATTTAAA	–	0.437	–
ACAGACGAAGGAGCCGCAAAGTAGTTATTAAGGGATGAATAATCCCTCAATATACATATCTCTCACTTATTTAAA	–	0.664	–
ACAGACGAAGGAGCCGCAAAGTAGTTATTAAGGGATGAATAATCCCTCAATATATATATCTCTCACTTATTTAAA	–	0.884	–
ACAGACGAAGGAGCCGCAAAGTAGTTATTAAGGGATGAATAATCCCTCAATCTAAATATCTCTCACTTATTTAAA	–	0.0783	–
ACAGACGAAGGAGCCGCAAAGTAGTTATTAAGGGATGAATAATCCCTCAATGTAAATATCTCTCACTTATTTAAA	–	0.13	–
ACAGACGAAGGAGCCGCAAAGTAGTTATTAAGGGATGAATAATCCCTCAATTTAAATATCTCTCACTTATTTAAA	–	0.221	–
ACAGACGAAGGAGCCGCAAAGTAGTTATTAAGGGATGAATAATCCCTCATTATAAATATCTCTCACTTATTTAAA	–	0.396	–
ACAGACGAAGGAGCCGCAAAGTAGTTATTAAGGGATGAATAATCCCTCCATATAAATATCTCTCACTTATTTAAA	0.299	0.487	–
ACAGACGAAGGAGCCGCAAAGTAGTTATTAAGGGATGAATAATCCCTGAATATAAATATCTCTCACTTATTTAAA	0.409	0.524	–
ACAGACGAAGGAGCCGCAAAGTAGTTATTAAGGGATGAATAATCCCTTAATATAAATATCTCTCACTTATTTAAA	0.869	–	0.729
ACAGACGAAGGAGCCGCAAAGTAGTTATTAAGGGATGAATAATCCTTCAATATAAATATCTCTCACTTATTTAAA	–	0.543	–
ACAGACGAAGGAGCCGCAAAGTAGTTATTAAGGGATGAATAATCTCTCAATATAAATATCTCTCACTTATTTAAA	–	0.802	–
ACAGACGAAGGAGCCGCAAAGTAGTTATTAAGGGATGAATAATTCCTCAATATAAATATCTCTCACTTATTTAAA	–	0.75	–
ACAGACGAAGGAGCCGCAAAGTAGTTATTAAGGGATGAATAGTCCCTCAATATAAATATCTCTCACTTATTTAAA	–	0.883	–
